Legend:
[1] = target: DNAJA2 (DJA2), His-tagged (UniProt O60884); assay: ELISA; competition: 1 μM chaperone mixed with soluble peptide (titrated up to 100 μM, or fixed 100 μM in the screens) and bound to immobilised 1097-L; Kd of the competing peptide from linearised competition curves
[2] = target: HSC70 (HSPA8), His-tagged (UniProt P11142); assay: as above
[3] = target: DNAJA1 (DJA1), His-tagged (UniProt P31689); assay: as above
[4] = target: Fluorescent peptide FAM-1092-S (UniProt P13569); assay: other fluorescence titration; 0.5 μM FAM-1092-S with varying concentrations of chaperone, 45 min; HSC70 in buffer G, DJA1 and DJA2 in buffer H; excitation 492 nm, emission 520 nm; one site total binding fit
Sequence of Fluorescent peptide FAM-1092-S (P13569 whole entry, looked up, tested part not stated): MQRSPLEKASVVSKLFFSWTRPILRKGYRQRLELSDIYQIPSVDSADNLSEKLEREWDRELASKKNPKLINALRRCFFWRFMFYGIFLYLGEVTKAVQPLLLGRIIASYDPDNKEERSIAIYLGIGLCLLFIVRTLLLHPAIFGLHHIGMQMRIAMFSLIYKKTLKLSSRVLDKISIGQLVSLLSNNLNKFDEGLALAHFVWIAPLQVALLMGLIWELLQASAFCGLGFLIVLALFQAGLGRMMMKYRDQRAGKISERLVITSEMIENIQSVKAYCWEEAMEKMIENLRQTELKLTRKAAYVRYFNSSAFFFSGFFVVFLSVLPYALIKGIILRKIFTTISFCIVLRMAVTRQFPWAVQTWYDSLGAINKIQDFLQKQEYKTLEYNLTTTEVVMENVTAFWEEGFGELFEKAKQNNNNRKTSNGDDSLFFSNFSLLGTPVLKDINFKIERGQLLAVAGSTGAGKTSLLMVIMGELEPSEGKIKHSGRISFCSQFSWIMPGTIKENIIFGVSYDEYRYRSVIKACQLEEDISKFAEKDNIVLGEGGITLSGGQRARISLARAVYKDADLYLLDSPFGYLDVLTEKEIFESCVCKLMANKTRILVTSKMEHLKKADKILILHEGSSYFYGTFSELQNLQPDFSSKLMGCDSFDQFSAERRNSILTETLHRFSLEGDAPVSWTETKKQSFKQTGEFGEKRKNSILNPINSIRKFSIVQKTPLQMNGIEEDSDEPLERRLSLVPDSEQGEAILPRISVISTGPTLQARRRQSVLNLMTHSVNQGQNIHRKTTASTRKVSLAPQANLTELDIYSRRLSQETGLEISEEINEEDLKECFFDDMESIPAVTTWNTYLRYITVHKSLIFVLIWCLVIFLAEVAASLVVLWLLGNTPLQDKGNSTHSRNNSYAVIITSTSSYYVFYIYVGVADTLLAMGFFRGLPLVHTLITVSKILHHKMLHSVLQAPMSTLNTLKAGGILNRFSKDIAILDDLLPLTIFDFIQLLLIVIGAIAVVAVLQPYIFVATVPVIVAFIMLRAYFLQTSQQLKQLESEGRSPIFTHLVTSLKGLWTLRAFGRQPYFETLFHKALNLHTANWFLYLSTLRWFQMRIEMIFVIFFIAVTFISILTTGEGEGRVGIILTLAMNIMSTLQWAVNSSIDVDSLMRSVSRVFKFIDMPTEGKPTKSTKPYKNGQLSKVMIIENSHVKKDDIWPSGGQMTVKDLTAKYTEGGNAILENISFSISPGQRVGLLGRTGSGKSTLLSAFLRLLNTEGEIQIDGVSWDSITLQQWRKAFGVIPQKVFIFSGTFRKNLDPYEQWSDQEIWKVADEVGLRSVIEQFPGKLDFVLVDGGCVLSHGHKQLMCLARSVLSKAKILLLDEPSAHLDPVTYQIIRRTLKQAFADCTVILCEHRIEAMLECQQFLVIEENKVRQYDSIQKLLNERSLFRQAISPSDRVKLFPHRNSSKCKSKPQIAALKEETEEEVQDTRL

[5] = target: CFTR peptide 1097-L, biotinylated (library form) (UniProt P13569); assay: ELISA; titration of increasing concentrations of chaperone on immobilised biotinylated peptide; HSC70 with ATP; apparent Kd from linearised binding curves

Sequence of CFTR peptide 1092-S (P13569 whole entry, looked up, tested part not stated): as above
Sequence of HSC70 (HSPA8), His-tagged (UniProt P11142) (P11142 whole entry): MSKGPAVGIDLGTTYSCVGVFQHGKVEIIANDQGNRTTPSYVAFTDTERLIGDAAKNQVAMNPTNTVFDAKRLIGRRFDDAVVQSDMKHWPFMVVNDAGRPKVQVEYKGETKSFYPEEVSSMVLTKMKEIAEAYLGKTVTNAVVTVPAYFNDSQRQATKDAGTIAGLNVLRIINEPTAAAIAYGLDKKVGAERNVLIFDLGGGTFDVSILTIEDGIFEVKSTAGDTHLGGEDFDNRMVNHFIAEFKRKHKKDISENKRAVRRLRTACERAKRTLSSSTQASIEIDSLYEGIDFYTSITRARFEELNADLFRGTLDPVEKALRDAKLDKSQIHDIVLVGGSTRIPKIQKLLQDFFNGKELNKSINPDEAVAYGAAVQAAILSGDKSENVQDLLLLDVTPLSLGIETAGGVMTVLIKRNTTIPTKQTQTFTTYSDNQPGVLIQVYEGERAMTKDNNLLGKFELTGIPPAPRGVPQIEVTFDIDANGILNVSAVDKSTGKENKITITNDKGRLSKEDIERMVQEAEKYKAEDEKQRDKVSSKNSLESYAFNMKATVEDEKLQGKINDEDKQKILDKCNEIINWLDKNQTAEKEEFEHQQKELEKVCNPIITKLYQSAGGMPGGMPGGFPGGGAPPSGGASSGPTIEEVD
Sequence of HSC70 (HSPA8), His-tagged (from UniProt P11142 1-646) (natural protein) (P11142 whole entry): as above
Sequence of DNAJA2 (DJA2), His-tagged (from UniProt O60884 1-412) (natural protein) (O60884 whole entry): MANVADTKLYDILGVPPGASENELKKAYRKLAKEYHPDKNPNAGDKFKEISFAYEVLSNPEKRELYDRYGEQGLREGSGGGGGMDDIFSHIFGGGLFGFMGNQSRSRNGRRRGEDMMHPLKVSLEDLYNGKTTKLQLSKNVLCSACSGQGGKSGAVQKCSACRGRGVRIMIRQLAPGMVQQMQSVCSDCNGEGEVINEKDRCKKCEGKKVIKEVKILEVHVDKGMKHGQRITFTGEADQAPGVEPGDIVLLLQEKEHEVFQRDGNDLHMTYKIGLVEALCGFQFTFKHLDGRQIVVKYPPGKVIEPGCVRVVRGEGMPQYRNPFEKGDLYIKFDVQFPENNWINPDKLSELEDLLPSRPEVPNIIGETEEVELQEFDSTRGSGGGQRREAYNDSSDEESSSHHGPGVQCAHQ
Sequence of DNAJA2 (DJA2), His-tagged (UniProt O60884) (O60884 whole entry): as above

Substance | Kd [1] | Kd [2] | Kd [3] | Kd [4] | Kd [5]
CFTR peptide 1092-S (from UniProt P13569 1088-1096) | 2.62 µM | 1.26 µM | 5.47 µM |  | 
CFTR peptide 1097-L, soluble unmodified (from UniProt P13569 1090-1104) | 0.585 µM | 0.602 µM | 2.43 µM |  | 
HSC70 (HSPA8), His-tagged (from UniProt P11142 1-646) (natural protein) |  |  |  | 6.17 µM | 0.058 µM
DNAJA2 (DJA2), His-tagged (from UniProt O60884 1-412) (natural protein) |  |  |  | 8.46 µM | 0.075 µM
DNAJA1 (DJA1), His-tagged (from UniProt P31689 1-397) (natural protein) |  |  |  | 3.97 µM | 0.167 µM

Source: PMC7060200, “Selective Binding of HSC70 and its Co-Chaperones to Structural Hotspots on CFTR” (Scientific Reports, 2020)
